Test results published in article doi:10.1101/2020.08.17.253781 (2020).

Biological target: GST-LOV2GIVe (L) (Avena sativa | , UniProt O49003)

Kd: 270 nM
B1: His-Gαi3 (natural protein)
chain: MGCTLSAEDKAAVERSKMIDRNLREDGEKAAKEVKLLLLGAGESGKSTIVKQMKIIHEDGYSEDECKQYKVVVYSNTIQSIIAIIRAMGRLKIDFGEAARADDARQLFVLAGSAEEGVMTSELAGVIKRLWRDGGVQACFSRSREYQLNDSASYYLNDLDRISQTNYIPTQQDVLRTRVKTTGIVETHFTFKELYFKMFDVGGQRSERKKWIHCFEGVTAIIFCVALSDYDLVLAEDEEMNRMHESMKLFDSICNNKWFTDTSIILFLNKKDLFEEKIKRSPLTICYPEYTGSNTYEEAAAYIQCQFEDLNRRKDTKEVYTHFTCATDTKNVQFVFDAVTDVIIKNNLKECGLY
